According to the RNAGym collection of RNA variant scans (doi:10.1093/molbev/msab373):

B1: Azoarcus group I ribozyme (parent)
chain: GUGCCUUGCGCCGGGAAACCACGCAAGGGAUGGUGUCAAAUUCGGCGAAACCUAAGCGCCCGCCCGGGCGUAUGGCAACGCCGAGCCAAGCUUCGGCGCCUGCGCCGAUGAAGGUGUAGAGACUAGACGGCACCCACCUAAGGCAAACGCUAUGGUGAAGGCAUAGUCCAGGGAGUGGCGAAAGUCACACAAACCGG

Variants of: B1
Experiment: reverse-splicing fitness (ratio to wild type); higher = more active; in vitro selection; Mg2+ level not given
Procedure, shortened: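 An in vitro group I ribozyme library with randomized positions was T7-transcribed and gel-purified. In triplicate, 10 pmol RNA in EPPS pH 7.5 was reacted with 50 pmoles of a 30-nt RNA substrate for 1 h at 37 °C across several added MgCl2 levels (1–48 mM), then stopped with EDTA. Products were reverse transcribed from a substrate-complementary primer, PCR-amplified and sequenced (HiSeq 4000). Fitness is a variant's read proportion after selection over that before, normalised to wild type.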

First: C82U A111G A120U A145U C150A C169A U176A
Second: C82U A111G A120U A145U C150A C169A U176G
The reverse-splicing fitness of the first is higher: 0.00277 for the first, 0.00195 for the second.

Going from C82U A111G A120U A145U C150A C169A U176C to C82U A111G A120U A145G C150G C169G U176G, the reverse-splicing fitness rises from 0.00251 to 0.00255.

Going from C82U A111G A120U A145G C150G C169G U176C to C82U A111G A120U A145G C150G C169G U176A, the reverse-splicing fitness rises from 0.00401 to 0.0073.

Compared with C82U A111G A120U A145U C150U C169U U176A, C82U A111G A120U A145U C150U C169U U176G is lower in reverse-splicing fitness: 0.00262 for the first, 0.00192 for the second.

Going from C82U A111G A120U A145U C150U C169U U176C to C82U A111G A120U A145U C150U C169A, the reverse-splicing fitness falls from 0.00261 to 0.00252.

Compared with C82U A111G A120U A145U C150U C169G, C82U A111G A120U A145U C150U C169U is higher in reverse-splicing fitness: 0.00305 for the first, 0.00372 for the second.

Going from C82U A111G A120U A145U C169G to C82U A111G A120U A145U C169U, the reverse-splicing fitness rises from 0.00313 to 0.00467.

First: C82U A111G A120U A145U C169A
Second: C82U A111G A120U A145U C150A C169G U176G
The reverse-splicing fitness of the first is higher: 0.00249 for the first, 0.00148 for the second.

Compared with C82U A111G A120U A145U C150A C169G U176A, C82U A111G A120U A145U C150A C169G U176C is higher in reverse-splicing fitness: 0.00245 for the first, 0.00253 for the second.

Going from C82U A111G A120U A145G C150A C169A U176C to C82U A111G A120U A145G C150A C169A U176A, the reverse-splicing fitness rises from 0.00365 to 0.00624.

Compared with C82U A111G A120U A145G C150A C169A U176G, C82U A111G A120U A145C U176C is higher in reverse-splicing fitness: 0.00258 for the first, 0.0117 for the second.

Compared with C82U A111G A120U A145C U176G, C82U A111G A120U A145C U176A is higher in reverse-splicing fitness: 0.00339 for the first, 0.00851 for the second.

Going from C82U A111G A120U A145G C150G C169A U176G to C82U A111G A120U A145G C150G C169A U176C, the reverse-splicing fitness rises from 0.00326 to 0.00712.

First: C82U A111G A120U A145G C150G C169A U176A
Second: C82U A111G A120U A145G C150G U176C
The reverse-splicing fitness of the first is higher: 0.0084 for the first, 0.00719 for the second.

Going from C82U A111G A120U A145G C150G U176G to C82U A111G A120U A145G C150G U176A, the reverse-splicing fitness rises from 0.00276 to 0.00494.

Going from C82U A111G A120U A145C C169U U176G to C82U A111G A120U A145C C169U U176A, the reverse-splicing fitness rises from 0.00126 to 0.00232.

First: C82U A111G A120U A145C C169U U176C
Second: C82U A111G A120U A145C C169A U176G
The reverse-splicing fitness of the first is higher: 0.00209 for the first, 0.00179 for the second.

Compared with C82U A111G A120U A145U C150A C169U, C82U A111G A120U A145U C150A C169A is lower in reverse-splicing fitness: 0.00292 for the first, 0.00228 for the second.

First: C82U A111G A120U A145U C150A C169G
Second: C82U A111G A120U A145U C150U C169G U176A
The reverse-splicing fitness of the first is lower: 0.00226 for the first, 0.0026 for the second.

Going from C82U A111G A120U A145U C150U C169G U176G to C82U A111G A120U A145U C150U C169G U176C, the reverse-splicing fitness rises from 0.00172 to 0.00294.

First: C82U A111G A120U A145G C150A U176G
Second: C82U A111G A120U A145G C150A U176A
The reverse-splicing fitness of the first is lower: 0.00267 for the first, 0.00588 for the second.

Compared with C82U A111G A120U A145G C150A U176C, C82U A111G A120U C150A C169U U176A is lower in reverse-splicing fitness: 0.00749 for the first, 0.00577 for the second.

Compared with C82U A111G A120U C150A C169U U176C, C82U A111G A120U C150A C169U U176G is lower in reverse-splicing fitness: 0.00372 for the first, 0.00202 for the second.

First: C82U A111G A120U A145G C150G C169U U176C
Second: C82U A111G A120U A145G C150G C169U U176G
The reverse-splicing fitness of the first is higher: 0.00581 for the first, 0.00292 for the second.

Compared with C82U A111G A120U A145G C150G C169U U176A, C82U A111G A120U A145U C169G U176A is lower in reverse-splicing fitness: 0.00458 for the first, 0.00205 for the second.

First: C82U A111G A120U A145U C169G U176G
Second: C82U A111G A120U A145U C169G U176C
The reverse-splicing fitness of the first is lower: 0.00135 for the first, 0.00255 for the second.

Going from C82U A111G A120U A145U C169A U176A to C82U A111G A120U A145U C169A U176C, the reverse-splicing fitness rises from 0.00208 to 0.0022.

Compared with C82U A111G A120U A145U C169A U176G, C82U A111G A120U A145G C150U C169A is higher in reverse-splicing fitness: 0.00175 for the first, 0.0056 for the second.

First: C82U A111G A120U A145G C150U C169G
Second: C82U A111G A120U A145G C150U C169U
The reverse-splicing fitness of the first is higher: 0.00615 for the first, 0.00469 for the second.

Going from C82U A111G A120U A145U C169U U176C to C82U A111G A120U A145U C169U U176A, the reverse-splicing fitness falls from 0.00254 to 0.00252.

Compared with C82U A111G A120U A145U C169U U176G, C82U A111G A120U A145U C150G C169G U176C is higher in reverse-splicing fitness: 0.0016 for the first, 0.00239 for the second.

Compared with C82U A111G A120U A145U C150G C169G U176A, C82U A111G A120U A145U C150G C169G U176G is lower in reverse-splicing fitness: 0.00235 for the first, 0.00175 for the second.

Compared with C82U A111G A120U A145U C150U U176G, C82U A111G A120U A145U C150U U176C is higher in reverse-splicing fitness: 0.00372 for the first, 0.013 for the second.

First: C82U A111G A120U A145U C150U U176A
Second: C82U A111G A120U A145U C150G C169U U176A
The reverse-splicing fitness of the first is higher: 0.00763 for the first, 0.00271 for the second.

First: C82U A111G A120U A145U C150G C169U U176C
Second: C82U A111G A120U A145U C150G C169U U176G
The reverse-splicing fitness of the first is higher: 0.00227 for the first, 0.00213 for the second.

Going from C82U A111G A120U A145G C150A C169G U176G to C82U A111G A120U A145G C150A C169G U176A, the reverse-splicing fitness rises from 0.00221 to 0.0124.

Compared with C82U A111G A120U A145G C150A C169G U176C, C82U A111G A120U A145U C150G is higher in reverse-splicing fitness: 0.00574 for the first, 0.00775 for the second.

Compared with C82U A111G A120U A145U C150A, C82U A111G A120U A145U C150U is higher in reverse-splicing fitness: 0.00631 for the first, 0.0272 for the second.

First: C82U A111G A120U A145U C150A C169U U176G
Second: C82U A111G A120U A145U C150A C169U U176C
The reverse-splicing fitness of the first is lower: 0.00158 for the first, 0.00216 for the second.

First: C82U A111G A120U A145U C150A C169U U176A
Second: C82U A111G A120U A145U C150G C169U
The reverse-splicing fitness of the first is higher: 0.00278 for the first, 0.00235 for the second.

First: C82U A111G A120U A145U C150G C169G
Second: C82U A111G A120U A145U C150G C169A
The reverse-splicing fitness of the first is lower: 0.00266 for the first, 0.00272 for the second.

C82U A111G A120U C150A C169A U176A gave a reverse-splicing fitness of 0.00374.
